This note sets out measurements from the supplement of paper PMC7125110.

The labels stand for the following.
B1: glmS ribozyme (parent)
chain: AUAAAAGCGCCAGAACUACAGAAAUGUAGUUGACGAGGAGGAGGUUUAUCGAAUUUUCGGCGGAUGCCUCCAAA

± gives the standard error. For some assays here: Fewer inactive variants are shown than the library holds.

Details in all cases: with glucosamine-6-phosphate
The variants in series [1] derive from B1. Description: kcat; higher = faster cleavage; RNA array. In short, it runs like this:
(§1)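 The measurements used barcoded ribozyme variants on sequenced MiSeq chips, transcribed in situ by E. coli RNA polymerase and tracked at 37 °C with a hybridised Cy3 probe. Glucosamine-6-phosphate, 40 μM to 10 mM in HEPES/KCl/Mg(OAc)2 buffer, was flowed in while tiles were imaged over ~14 h. Baseline-normalised signals, also normalised to non-cleaving reference variants, gave per-tile medians that were fit to one- or two-exponential decays for kobs. kcat and KM resulted from weighted Michaelis–Menten fits across concentrations.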

Series [2] covers variants of B1. Description: self-cleavage kobs at 40 uM GlcN6P; higher = faster cleavage; RNA array. The method, boiled down:
as §1

Variants of B1 are the subject of series [3]. Description: self-cleavage kobs at 160 uM GlcN6P; higher = faster cleavage; RNA array. In short, it runs like this: as §1
The variants in series [4] derive from B1. Kind of series: self-cleavage kobs at 10000 uM GlcN6P; higher = faster cleavage; RNA array. In short, it runs like this: as §1
In series [5] the parent is B1. Description: KM; higher = weaker cofactor use; RNA array. The method, boiled down: as §1
Variants of B1 are the subject of series [6]. Description: self-cleavage kobs at 640 uM GlcN6P; higher = faster cleavage; RNA array. The method, boiled down:
as §1

Series [7] covers variants of B1. Description: self-cleavage kobs at 2500 uM GlcN6P; higher = faster cleavage; RNA array. In short, it runs like this: as §1

Usually kcat stands for the number of substrate molecules converted per active site and unit of time at saturation. The KM is the concentration of substrate that gives half-maximal velocity.

Consider C10G U54A, for which the catalytic constant (kcat) in series [1] was less than 1e-05 s⁻¹. Besides, the “self-cleavage kobs at 40 uM GlcN6P” value in series [2] is less than 1e-05 s⁻¹.
C16A G63U: in series [1], the kcat was less than 1e-05 s⁻¹. Moreover, in series [2], the “self-cleavage kobs at 40 uM GlcN6P” value was less than 1e-05 s⁻¹. Moreover, the “self-cleavage kobs at 160 uM GlcN6P” value in series [3] is less than 1e-05 s⁻¹. Further, in series [4], the “self-cleavage kobs at 10000 uM GlcN6P” value was less than 1e-05 s⁻¹.
Regarding C10A G60U, the catalytic constant (kcat) in series [1] came to 0.000974 ± 0.00015 s⁻¹. In series [5], the Michaelis constant (KM) turned out to be 1660 ± 470 µM. Moreover, the “self-cleavage kobs at 40 uM GlcN6P” value in series [2] turned out to be 3.82e-05 ± 7.9e-06 s⁻¹. The “self-cleavage kobs at 160 uM GlcN6P” value in series [3] stood at 8.97e-05 ± 1.6e-05 s⁻¹. In addition, the “self-cleavage kobs at 640 uM GlcN6P” value in series [6] was determined as 0.000243 ± 3.1e-05 s⁻¹. In series [7], the “self-cleavage kobs at 2500 uM GlcN6P” value was determined as 0.000514 ± 8.6e-05 s⁻¹. For the same variant, the “self-cleavage kobs at 10000 uM GlcN6P” value in series [4] is 0.000886 ± 8.3e-05 s⁻¹.
Consider C34A C71G, for which the catalytic constant (kcat) in series [1] turned out to be 1.15e-05 ± 3.9e-06 s⁻¹. The “self-cleavage kobs at 160 uM GlcN6P” value in series [3] was less than 1e-05 s⁻¹.
Turning to C16U A48C, in series [1], the kcat was 0.000297 ± 6.4e-05 s⁻¹. For the same variant, the KM in series [5] came out at 3910 ± 1700 µM. Moreover, in series [6], the “self-cleavage kobs at 640 uM GlcN6P” value came to 3.07e-05 ± 1.2e-05 s⁻¹. For the same variant, the “self-cleavage kobs at 2500 uM GlcN6P” value in series [7] was 0.000142 ± 2.4e-05 s⁻¹. Moreover, the “self-cleavage kobs at 10000 uM GlcN6P” value in series [4] amounted to 0.000203 ± 3.1e-05 s⁻¹.
Turning to A12U U69A, in series [1], the kcat turned out to be 0.000227 ± 4.2e-05 s⁻¹. Moreover, the “self-cleavage kobs at 40 uM GlcN6P” value in series [2] came out at 0.000106 ± 1.6e-05 s⁻¹. Moreover, the “self-cleavage kobs at 160 uM GlcN6P” value in series [3] was found to be 0.000124 ± 2.9e-05 s⁻¹. The “self-cleavage kobs at 640 uM GlcN6P” value in series [6] amounted to 0.000292 ± 4.6e-05 s⁻¹. The “self-cleavage kobs at 2500 uM GlcN6P” value in series [7] came out at 0.000186 ± 2.9e-05 s⁻¹. Further, the “self-cleavage kobs at 10000 uM GlcN6P” value in series [4] came out at 0.000303 ± 4.8e-05 s⁻¹.
For U49C C71G, the kcat in series [1] was found to be 1.02e-05 ± 5.3e-07 s⁻¹.
With C10A G51U C68G, in series [1], the turnover number (kcat) is 4.94e-05 ± 1.5e-05 s⁻¹. In addition, the “self-cleavage kobs at 40 uM GlcN6P” value in series [2] was 3.72e-05 ± 1.7e-05 s⁻¹. In addition, in series [3], the “self-cleavage kobs at 160 uM GlcN6P” value came out at 5.32e-05 ± 2.5e-05 s⁻¹. Further, the “self-cleavage kobs at 640 uM GlcN6P” value in series [6] came out at 9.82e-05 ± 3.2e-05 s⁻¹. Moreover, the “self-cleavage kobs at 10000 uM GlcN6P” value in series [4] is 3.4e-05 ± 1.6e-05 s⁻¹.
A12U U30G: the catalytic constant (kcat) in series [1] amounted to 0.0227 ± 0.0046 s⁻¹. The Michaelis-Menten constant (KM) in series [5] turned out to be 983 ± 280 µM. The “self-cleavage kobs at 40 uM GlcN6P” value in series [2] was 0.000931 ± 0.00012 s⁻¹. The “self-cleavage kobs at 640 uM GlcN6P” value in series [6] worked out at 0.00794 ± 0.0013 s⁻¹. Further, the “self-cleavage kobs at 2500 uM GlcN6P” value in series [7] turned out to be 0.0279 ± 0.0091 s⁻¹. In series [4], the “self-cleavage kobs at 10000 uM GlcN6P” value worked out at 0.0211 ± 0.0039 s⁻¹.
With U30A A36U, the kcat in series [1] is less than 1e-05 s⁻¹. For the same variant, the “self-cleavage kobs at 640 uM GlcN6P” value in series [6] was less than 1e-05 s⁻¹.
As for G29U G41U, the kcat in series [1] was determined as 8.68e-05 ± 1.2e-05 s⁻¹. The KM in series [5] is 651 ± 270 µM. In addition, the “self-cleavage kobs at 640 uM GlcN6P” value in series [6] turned out to be 5.08e-05 ± 1.6e-05 s⁻¹. Further, the “self-cleavage kobs at 2500 uM GlcN6P” value in series [7] turned out to be 6.65e-05 ± 2.9e-05 s⁻¹. Moreover, the “self-cleavage kobs at 10000 uM GlcN6P” value in series [4] came to 7.94e-05 ± 2.1e-05 s⁻¹.
A6G A39C: in series [1], the kcat is 0.00012 ± 4e-06 s⁻¹. Also, in series [5], the KM is 1580 ± 180 µM. Further, in series [6], the “self-cleavage kobs at 640 uM GlcN6P” value was 3.27e-05 ± 8.5e-06 s⁻¹. Further, the “self-cleavage kobs at 2500 uM GlcN6P” value in series [7] is 7.92e-05 ± 1.4e-05 s⁻¹. For the same variant, the “self-cleavage kobs at 10000 uM GlcN6P” value in series [4] was 0.000103 ± 8.7e-06 s⁻¹.
Turning to G13C C70G, the kcat in series [1] came out at 2.09e-05 ± 5.8e-06 s⁻¹.
As to G13A U30C, the kcat in series [1] was found to be 0.000676 ± 0.00014 s⁻¹. The Michaelis constant (KM) in series [5] amounted to 2010 ± 830 µM. Further, in series [6], the “self-cleavage kobs at 640 uM GlcN6P” value came to 0.000158 ± 3.2e-05 s⁻¹. Further, the “self-cleavage kobs at 2500 uM GlcN6P” value in series [7] was 0.000511 ± 9.2e-05 s⁻¹. In addition, in series [4], the “self-cleavage kobs at 10000 uM GlcN6P” value is 0.00051 ± 9.1e-05 s⁻¹.
Turning to G29A G44A, the kcat in series [1] turned out to be 1.73e-05 ± 3.5e-06 s⁻¹. In series [2], the “self-cleavage kobs at 40 uM GlcN6P” value was less than 1e-05 s⁻¹.
As for G40U A48C, in series [1], the kcat amounted to 5.25e-05 ± 2.1e-05 s⁻¹. Also, the “self-cleavage kobs at 160 uM GlcN6P” value in series [3] is less than 1e-05 s⁻¹. Also, the “self-cleavage kobs at 10000 uM GlcN6P” value in series [4] was 3.45e-05 ± 9.8e-06 s⁻¹.
Regarding A6C A15G, in series [1], the turnover number (kcat) was determined as 0.00015 ± 3.4e-06 s⁻¹. Further, the KM in series [5] was found to be 2500 ± 150 µM. The “self-cleavage kobs at 640 uM GlcN6P” value in series [6] is 3.25e-05 ± 1.4e-05 s⁻¹. In series [7], the “self-cleavage kobs at 2500 uM GlcN6P” value amounted to 7.37e-05 ± 1.3e-05 s⁻¹. For the same variant, the “self-cleavage kobs at 10000 uM GlcN6P” value in series [4] was found to be 0.000121 ± 1.6e-05 s⁻¹.
For the variant A12G U30A, the catalytic constant (kcat) in series [1] was found to be 0.00011 ± 1.9e-06 s⁻¹. In series [5], the Michaelis constant (KM) was 2890 ± 160 µM. In addition, in series [7], the “self-cleavage kobs at 2500 uM GlcN6P” value was 5.17e-05 ± 9.7e-06 s⁻¹. Besides, the “self-cleavage kobs at 10000 uM GlcN6P” value in series [4] was found to be 8.52e-05 ± 7.5e-06 s⁻¹.
Regarding C61G U69A, in series [1], the kcat is 2.83e-05 ± 3.9e-06 s⁻¹.
